Tests used:
CD105 (endoglin) [1] = target: T1, CD105 (endoglin) (UniProt P17813 26-586, limits assumed); test: CD105 binding ELISA; F04 (pH 5.5, 20 mM histidine, 240 mM trehalose, 50 mg/ml), 5 C, 12 months
T1 construct: Soluble protein captured on the plate
T1 sequence (looked up): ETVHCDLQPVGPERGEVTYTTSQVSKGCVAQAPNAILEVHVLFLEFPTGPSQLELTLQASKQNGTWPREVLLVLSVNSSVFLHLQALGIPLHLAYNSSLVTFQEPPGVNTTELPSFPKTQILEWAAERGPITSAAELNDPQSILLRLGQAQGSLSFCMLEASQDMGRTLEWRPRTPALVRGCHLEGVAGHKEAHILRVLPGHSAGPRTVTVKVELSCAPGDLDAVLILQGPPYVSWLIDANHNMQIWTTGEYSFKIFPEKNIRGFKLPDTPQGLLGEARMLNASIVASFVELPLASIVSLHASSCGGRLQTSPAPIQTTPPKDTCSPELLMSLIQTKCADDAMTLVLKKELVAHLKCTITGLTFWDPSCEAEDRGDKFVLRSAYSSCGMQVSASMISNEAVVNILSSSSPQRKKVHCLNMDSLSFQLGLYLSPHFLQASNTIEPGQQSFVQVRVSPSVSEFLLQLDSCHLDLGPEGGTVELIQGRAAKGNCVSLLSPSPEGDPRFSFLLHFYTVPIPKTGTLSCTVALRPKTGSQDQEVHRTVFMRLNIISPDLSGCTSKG

CD105 (endoglin) [2] = target: T1, CD105 (endoglin); test: CD105 binding ELISA; F07 (pH 4.0, 20 mM acetate, 240 mM trehalose, 100 mg/ml), 5 C, initial
CD105 (endoglin) [3] = target: T1, CD105 (endoglin); test: CD105 binding ELISA; F02 (pH 5.5, 20 mM histidine, 240 mM sorbitol, 25 mg/ml), 5 C, 6 months
CD105 (endoglin) [4] = target: T1, CD105 (endoglin); test: CD105 binding ELISA; F03 (pH 4.0, 20 mM acetate, 240 mM sorbitol, 25 mg/ml), 5 C, initial
CD105 (endoglin) [5] = target: T1, CD105 (endoglin); test: CD105 binding ELISA; TRC105 4 mg/mL in 17 mM phosphate, 145 mM NaCl, pH 7.2 (Lot FIN-0536), 2-8 C, 18 months
CD105 (endoglin) [6] = target: T1, CD105 (endoglin); test: CD105 binding ELISA; TRC105 4 mg/mL in 17 mM phosphate, 145 mM NaCl, pH 7.2 (Lot FIN-0536), 2-8 C, initial
CD105 (endoglin) [7] = target: T1, CD105 (endoglin); test: CD105 binding ELISA; F05 (pH 4.0, 20 mM acetate, 240 mM trehalose, 50 mg/ml), 5 C, 12 months
CD105 (endoglin) [8] = target: T1, CD105 (endoglin); test: CD105 binding ELISA; F01 (pH 5.5, 20 mM histidine, 240 mM trehalose, 25 mg/ml), 5 C, initial
CD105 (endoglin) [9] = target: T1, CD105 (endoglin); test: CD105 binding ELISA; TRC105 4 mg/mL in 17 mM phosphate, 145 mM NaCl, pH 7.2 (Lot FIN-0536), 25 C/60% RH study, initial (same initial value as in Table 18)
CD105 (endoglin) [10] = target: T1, CD105 (endoglin); test: CD105 binding ELISA; TRC105 4 mg/mL in 17 mM phosphate, 145 mM NaCl, pH 7.2 (Lot FIN-0536), 2-8 C, 24 months
CD105 (endoglin) [11] = target: T1, CD105 (endoglin); test: CD105 binding ELISA; F05 (pH 4.0, 20 mM acetate, 240 mM trehalose, 50 mg/ml), 5 C, initial
CD105 (endoglin) [12] = target: T1, CD105 (endoglin); test: CD105 binding ELISA; F02 (pH 5.5, 20 mM histidine, 240 mM sorbitol, 25 mg/ml), 5 C, 12 months
CD105 (endoglin) [13] = target: T1, CD105 (endoglin); test: CD105 binding ELISA; F06 (pH 5.5, 20 mM histidine, 240 mM trehalose, 100 mg/ml), 5 C, 12 months
CD105 (endoglin) [14] = target: T1, CD105 (endoglin); test: CD105 binding ELISA; F03 (pH 4.0, 20 mM acetate, 240 mM sorbitol, 25 mg/ml), 5 C, 12 months
CD105 (endoglin) [15] = target: T1, CD105 (endoglin); test: CD105 binding ELISA; TRC105 4 mg/mL in 17 mM phosphate, 145 mM NaCl, pH 7.2 (Lot FIN-0536), 2-8 C, 12 months
CD105 (endoglin) [16] = target: T1, CD105 (endoglin); test: CD105 binding ELISA; F02 (pH 5.5, 20 mM histidine, 240 mM sorbitol, 25 mg/ml), 5 C, initial
CD105 (endoglin) [17] = target: T1, CD105 (endoglin); test: CD105 binding ELISA; F07 (pH 4.0, 20 mM acetate, 240 mM trehalose, 100 mg/ml), 5 C, 12 months
CD105 (endoglin) [18] = target: T1, CD105 (endoglin); test: CD105 binding ELISA; F06 (pH 5.5, 20 mM histidine, 240 mM trehalose, 100 mg/ml), 5 C, 6 months
CD105 (endoglin) [19] = target: T1, CD105 (endoglin); test: CD105 binding ELISA; F04 (pH 5.5, 20 mM histidine, 240 mM trehalose, 50 mg/ml), 5 C, initial
CD105 (endoglin) [20] = target: T1, CD105 (endoglin); test: CD105 binding ELISA; TRC105 4 mg/mL in 17 mM phosphate, 145 mM NaCl, pH 7.2 (Lot FIN-0536), 25 C/60% RH, 1 month
CD105 (endoglin) [21] = target: T1, CD105 (endoglin); test: CD105 binding ELISA; TRC105 4 mg/mL in 17 mM phosphate, 145 mM NaCl, pH 7.2 (Lot FIN-0536), 2-8 C, 30 months
CD105 (endoglin) [22] = target: T1, CD105 (endoglin); test: CD105 binding ELISA; TRC105 4 mg/mL in 17 mM phosphate, 145 mM NaCl, pH 7.2 (Lot FIN-0536), 2-8 C, 36 months
CD105 (endoglin) [23] = target: T1, CD105 (endoglin); test: CD105 binding ELISA; TRC105 4 mg/mL in 17 mM phosphate, 145 mM NaCl, pH 7.2 (Lot FIN-0536), 2-8 C, 9 months
CD105 (endoglin) [24] = target: T1, CD105 (endoglin); test: CD105 binding ELISA; F06 (pH 5.5, 20 mM histidine, 240 mM trehalose, 100 mg/ml), 5 C, initial
CD105 (endoglin) [25] = target: T1, CD105 (endoglin); test: CD105 binding ELISA; F01 (pH 5.5, 20 mM histidine, 240 mM trehalose, 25 mg/ml), 5 C, 6 months
CD105 (endoglin) [26] = target: T1, CD105 (endoglin); test: CD105 binding ELISA; TRC105 4 mg/mL in 17 mM phosphate, 145 mM NaCl, pH 7.2 (Lot FIN-0536), 2-8 C, 6 months
CD105 (endoglin) [27] = target: T1, CD105 (endoglin); test: CD105 binding ELISA; F04 (pH 5.5, 20 mM histidine, 240 mM trehalose, 50 mg/ml), 5 C, 6 months
CD105 (endoglin) [28] = target: T1, CD105 (endoglin); test: CD105 binding ELISA; F01 (pH 5.5, 20 mM histidine, 240 mM trehalose, 25 mg/ml), 5 C, 12 months

Percent Relative CD105 Binding Potency (CD105 (endoglin) [1]): 74 % relative to reference standard | Percent Relative CD105 Binding Potency (CD105 (endoglin) [2]): 100 % relative to reference standard | Percent Relative CD105 Binding Potency (CD105 (endoglin) [3]): 90 % relative to reference standard | Percent Relative CD105 Binding Potency (CD105 (endoglin) [4]): 124 % relative to reference standard | CD105 Binding by ELISA (binding activity relative to reference standard) (CD105 (endoglin) [5]): 88 % relative to reference standard | CD105 Binding by ELISA (binding activity relative to reference standard) (CD105 (endoglin) [6]): 88 % relative to reference standard | Percent Relative CD105 Binding Potency (CD105 (endoglin) [7]): 96 % relative to reference standard | Percent Relative CD105 Binding Potency (CD105 (endoglin) [8]): 101 % relative to reference standard | CD105 Binding by ELISA (binding activity relative to reference standard) (CD105 (endoglin) [9]): 88 % relative to reference standard | CD105 Binding by ELISA (binding activity relative to reference standard) (CD105 (endoglin) [10]): 136 % relative to reference standard | Percent Relative CD105 Binding Potency (CD105 (endoglin) [11]): 179 % relative to reference standard | Percent Relative CD105 Binding Potency (CD105 (endoglin) [12]): 69 % relative to reference standard | Percent Relative CD105 Binding Potency (CD105 (endoglin) [13]): 115 % relative to reference standard | Percent Relative CD105 Binding Potency (CD105 (endoglin) [14]): 77 % relative to reference standard | CD105 Binding by ELISA (binding activity relative to reference standard) (CD105 (endoglin) [15]): 91 % relative to reference standard | Percent Relative CD105 Binding Potency (CD105 (endoglin) [16]): 90 % relative to reference standard | Percent Relative CD105 Binding Potency (CD105 (endoglin) [17]): 86 % relative to reference standard | Percent Relative CD105 Binding Potency (CD105 (endoglin) [18]): 95 % relative to reference standard | Percent Relative CD105 Binding Potency (CD105 (endoglin) [19]): 123 % relative to reference standard | CD105 Binding by ELISA (binding activity relative to reference standard) (CD105 (endoglin) [20]): 91 % relative to reference standard | CD105 Binding by ELISA (binding activity relative to reference standard) (CD105 (endoglin) [21]): 88 % relative to reference standard | CD105 Binding by ELISA (binding activity relative to reference standard) (CD105 (endoglin) [22]): 105 % relative to reference standard | CD105 Binding by ELISA (binding activity relative to reference standard) (CD105 (endoglin) [23]): 104 % relative to reference standard | Percent Relative CD105 Binding Potency (CD105 (endoglin) [24]): 93 % relative to reference standard | Percent Relative CD105 Binding Potency (CD105 (endoglin) [25]): 94 % relative to reference standard | CD105 Binding by ELISA (binding activity relative to reference standard) (CD105 (endoglin) [26]): 110 % relative to reference standard | Percent Relative CD105 Binding Potency (CD105 (endoglin) [27]): 97 % relative to reference standard | Percent Relative CD105 Binding Potency (CD105 (endoglin) [28]): 68 % relative to reference standard
B1: TRC105 (an anti-CD105 antibody) (antibody, human IgG1, kappa, V domains shown)
VH: EVKLEESGGGLVQPGGSMKLSCAASGFTFSDAWMDWVRQSPEKGLEWVAEIRSKASNHATYYAESVKGRFTISRDDSKSSVYLQMNSLRAEDTGIYYCTRWRRFFDSWGQGTTLTVSS
VL: QIVLSQSPAILSASPGEKVTMTCRASSSVSYMHWYQQKPGSSPKPWIYATSNLASGVPVRFSGSGSGTSYSLTISRVEAEDAATYYCQQWSSNPLTFGAGTKLELKR
notes: each chain is built here as variable plus constant region; The same antibody was tested in different formulations and after different storage times; also called Lot FIN-0536
